# Measurements as given in US20150344570A1 (published 2015).
# B1: GpH7-A5/GpH7-B3 variant K326_07I/GpL16-k0 (antibody, human IgG1, kappa)
# heavy 1: not shown
# heavy 2: not shown
# light: DIVMTQSPLSLPVTPGEPASISCQASESLVHSNRNTYLHWYLQKPGQSPQLLIYKVSNRFSGVPDRFSGSGSGTDFTLKISRVEAEDVGVYYCSQNTHVPPTFGQGTKVEIERTVAAPSVFIFPPSDEQLKSGTASVVCLLNNFYPREAKVQWKVDNALQSGNSQESVTEQDSKDSTYSLSSTLTLSKADYEKHKVYACEVTHQGLSSPVTKSFNRGEC
# notes: Heterodimerized anti-glypican-3 IgG1; mutation in the GpH7-B3 chain only; also called He Ab
# B2: GpH7-A5/GpH7-B3 variant S267_06M/GpL16-k0 (antibody, human IgG1, kappa)
# heavy 1: not shown
# heavy 2: not shown
# light: B1 light
# notes: as for B1
# B3: GpH7-A5/GpH7-B3 variant S267_07I/GpL16-k0 (antibody, human IgG1, kappa)
# heavy 1: not shown
# heavy 2: not shown
# light: B1 light
# notes: as for B1
# B4: GpH7-A5/GpH7-B3 variant L328_10E/GpL16-k0 (antibody, human IgG1, kappa)
# heavy 1: not shown
# heavy 2: not shown
# light: B1 light
# notes: as for B1
# B5: GpH7-A5/GpH7-B3 variant N325_06M/GpL16-k0 (antibody, human IgG1, kappa)
# heavy 1: not shown
# heavy 2: not shown
# light: B1 light
# notes: as for B1
# B6: GpH7-A5/GpH7-B3 variant K326_09D/GpL16-k0 (antibody, human IgG1, kappa)
# heavy 1: not shown
# heavy 2: not shown
# light: B1 light
# notes: as for B1
# B7: GpH7-A5/GpH7-B3 variant P271_01G/GpL16-k0 (antibody, human IgG1, kappa)
# heavy 1: not shown
# heavy 2: not shown
# light: B1 light
# notes: as for B1
# B8: GpH7-A5/GpH7-B3 variant L328_07I/GpL16-k0 (antibody, human IgG1, kappa)
# heavy 1: not shown
# heavy 2: not shown
# light: B1 light
# notes: as for B1
# B9: GpH7-A5/GpH7-B3 variant S267_03V/GpL16-k0 (antibody, human IgG1, kappa)
# heavy 1: not shown
# heavy 2: not shown
# light: B1 light
# notes: as for B1
# B10: GpH7-A5/GpH7-B3 variant L328_12R/GpL16-k0 (antibody, human IgG1, kappa)
# heavy 1: not shown
# heavy 2: not shown
# light: B1 light
# notes: as for B1
# B11: GpH7-A5/GpH7-B3 variant P238_10E/GpL16-k0 (antibody, human IgG1, kappa)
# heavy 1: not shown
# heavy 2: not shown
# light: B1 light
# notes: as for B1
# B12: GpH7-A5/GpH7-B3 variant P238_09D/GpL16-k0 (antibody, human IgG1, kappa)
# heavy 1: not shown
# heavy 2: not shown
# light: B1 light
# notes: as for B1
# B13: GpH7-A5/GpH7-B3 variant P238_04F/GpL16-k0 (antibody, human IgG1, kappa)
# heavy 1: not shown
# heavy 2: not shown
# light: B1 light
# notes: as for B1
# B14: GpH7-A5/GpH7-B3 variant N325_07I/GpL16-k0 (antibody, human IgG1, kappa)
# heavy 1: not shown
# heavy 2: not shown
# light: B1 light
# notes: as for B1
# B15: GpH7-A5/GpH7-B3 variant K326_08L/GpL16-k0 (antibody, human IgG1, kappa)
# heavy 1: not shown
# heavy 2: not shown
# light: B1 light
# notes: as for B1
# B16: GpH7-A5/GpH7-B3 variant P238_15Y/GpL16-k0 (antibody, human IgG1, kappa)
# heavy 1: not shown
# heavy 2: not shown
# light: B1 light
# notes: as for B1
# B17: GpH7-A5/GpH7-B3 variant N325_08L/GpL16-k0 (antibody, human IgG1, kappa)
# heavy 1: not shown
# heavy 2: not shown
# light: B1 light
# notes: as for B1
# B18: GpH7-A5/GpH7-B3 variant S267_12R/GpL16-k0 (antibody, human IgG1, kappa)
# heavy 1: not shown
# heavy 2: not shown
# light: B1 light
# notes: as for B1
# B19: GpH7-A5/GpH7-B3 variant S267_09D/GpL16-k0 (antibody, human IgG1, kappa)
# heavy 1: not shown
# heavy 2: not shown
# light: B1 light
# notes: as for B1
# B20: GpH7-A5/GpH7-B3 variant S267_16H/GpL16-k0 (antibody, human IgG1, kappa)
# heavy 1: not shown
# heavy 2: not shown
# light: B1 light
# notes: as for B1
# B21: GpH7-A5/GpH7-B3 variant S239_10E/GpL16-k0 (antibody, human IgG1, kappa)
# heavy 1: not shown
# heavy 2: not shown
# light: B1 light
# notes: as for B1
# B22: GpH7-A5/GpH7-B3 variant S267_04F/GpL16-k0 (antibody, human IgG1, kappa)
# heavy 1: not shown
# heavy 2: not shown
# light: B1 light
# notes: as for B1
# B23: GpH7-A5/GpH7-B3 variant L328_11K/GpL16-k0 (antibody, human IgG1, kappa)
# heavy 1: not shown
# heavy 2: not shown
# light: B1 light
# notes: as for B1
# B24: GpH7-A5/GpH7-B3 variant S267_02A/GpL16-k0 (antibody, human IgG1, kappa)
# heavy 1: not shown
# heavy 2: not shown
# light: B1 light
# notes: as for B1
# B25: GpH7-A5/GpH7-B3 variant S267_10E/GpL16-k0 (antibody, human IgG1, kappa)
# heavy 1: not shown
# heavy 2: not shown
# light: B1 light
# notes: as for B1
# B26: GpH7-A5/GpH7-B3 variant P238_08L/GpL16-k0 (antibody, human IgG1, kappa)
# heavy 1: not shown
# heavy 2: not shown
# light: B1 light
# notes: as for B1
# B27: GpH7-A5/GpH7-B3 variant S239_09D/GpL16-k0 (antibody, human IgG1, kappa)
# heavy 1: not shown
# heavy 2: not shown
# light: B1 light
# notes: as for B1
# B28: GpH7-A5/GpH7-B3 variant S267_11K/GpL16-k0 (antibody, human IgG1, kappa)
# heavy 1: not shown
# heavy 2: not shown
# light: B1 light
# notes: as for B1
# B29: GpH7-A5/GpH7-B3 variant L328_09D/GpL16-k0 (antibody, human IgG1, kappa)
# heavy 1: not shown
# heavy 2: not shown
# light: B1 light
# notes: as for B1
# B30: GpH7-A5/GpH7-B3 variant L328_04F/GpL16-k0 (antibody, human IgG1, kappa)
# heavy 1: not shown
# heavy 2: not shown
# light: B1 light
# notes: as for B1
# B31: GpH7-A5/GpH7-B3 variant N325_20W/GpL16-k0 (antibody, human IgG1, kappa)
# heavy 1: not shown
# heavy 2: not shown
# light: B1 light
# notes: as for B1
# B32: GpH7-A5/GpH7-B3 variant S267_14T/GpL16-k0 (antibody, human IgG1, kappa)
# heavy 1: not shown
# heavy 2: not shown
# light: B1 light
# notes: as for B1
# B33: GpH7-A5/GpH7-B3 variant K326_10E/GpL16-k0 (antibody, human IgG1, kappa)
# heavy 1: not shown
# heavy 2: not shown
# light: B1 light
# notes: as for B1
# Experiments:
# [1] = biological target: T1, FcγRIIa R (human, UniProt P12318 34-217); assay: SPR, relative to GpH7-A5/GpH7-B3/GpL16-k0
# T1 construct: extracellular domain; also called FcgRIIa R type; 2aR; not shown: His tag at the C terminus
# T1 sequence (looked up): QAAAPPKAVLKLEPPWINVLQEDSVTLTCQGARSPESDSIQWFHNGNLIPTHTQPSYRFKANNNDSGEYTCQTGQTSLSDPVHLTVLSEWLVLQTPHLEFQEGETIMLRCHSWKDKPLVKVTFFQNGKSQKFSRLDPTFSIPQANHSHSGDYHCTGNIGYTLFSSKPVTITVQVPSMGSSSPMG
# [2] = biological target: T2, FcγRIIb (human, UniProt P31994 43-217); assay: SPR, relative to GpH7-A5/GpH7-B3/GpL16-k0
# T2 construct: extracellular domain; also called FcgRIIb; 2b; not shown: His tag at the C terminus
# T2 sequence (looked up): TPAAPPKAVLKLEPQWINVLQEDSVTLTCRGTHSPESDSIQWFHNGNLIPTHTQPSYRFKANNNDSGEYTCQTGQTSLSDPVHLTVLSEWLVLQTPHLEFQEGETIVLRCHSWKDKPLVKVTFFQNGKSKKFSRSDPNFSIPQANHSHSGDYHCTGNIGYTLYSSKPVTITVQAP
# [3] = biological target: T1, FcγRIIa R; assay: SPR; He/Con_2aR divided by He/Con_2b (FcγRIIa R over FcγRIIb)
Binder,He/Con_2aR [1],He/Con_2b [2],He_2aR/2b [3]
B1,147 control = 100,199 control = 100,0.74 ratio
B2,122 control = 100,210 control = 100,0.58 ratio
B3,111 control = 100,192 control = 100,0.58 ratio
B4,105 control = 100,172 control = 100,0.61 ratio
B5,152 control = 100,217 control = 100,0.7 ratio
B6,148 control = 100,193 control = 100,0.77 ratio
B7,144 control = 100,193 control = 100,0.75 ratio
B8,124 control = 100,160 control = 100,0.78 ratio
B9,116 control = 100,192 control = 100,0.61 ratio
B10,5 control = 100,9.2 control = 100,0.54 ratio
B11,151 control = 100,232 control = 100,0.65 ratio
B12,148 control = 100,221 control = 100,0.67 ratio
B13,174 control = 100,312 control = 100,0.56 ratio
B14,133 control = 100,171 control = 100,0.78 ratio
B15,137 control = 100,177 control = 100,0.77 ratio
B16,156 control = 100,218 control = 100,0.72 ratio
B17,144 control = 100,197 control = 100,0.73 ratio

Binder,He/Con_2aR [1],He/Con_2b [2],He_2aR/2b [3]
B18,3.6 control = 100,11.3 control = 100,0.32 ratio
B19,173 control = 100,310 control = 100,0.56 ratio
B20,50.6 control = 100,65.9 control = 100,0.77 ratio
B21,135 control = 100,181 control = 100,0.75 ratio
B22,37.8 control = 100,48 control = 100,0.79 ratio
B23,2.5 control = 100,7.5 control = 100,0.33 ratio
B24,155 control = 100,243 control = 100,0.64 ratio
B25,175 control = 100,379 control = 100,0.46 ratio
B26,140 control = 100,204 control = 100,0.68 ratio
B27,137 control = 100,206 control = 100,0.66 ratio
B28,3.6 control = 100,12.2 control = 100,0.3 ratio
B29,119 control = 100,199 control = 100,0.6 ratio
B30,138 control = 100,219 control = 100,0.63 ratio
B31,134 control = 100,169 control = 100,0.79 ratio
B32,81.9 control = 100,104 control = 100,0.78 ratio
B33,148 control = 100,200 control = 100,0.74 ratio
